pKd: −log10 of the molar value.
Molecular target: K63-linked diUb (UniProt P0CG48)
Assay: ITC; USP13-UBA12 (1.25 mM stock) injected into K63-, K48-, linear diUb (0.1 mM) or monoUb (0.2 mM), 25 injections of 1.5 µL; 50 mM Tris, 150 mM NaCl, pH 7.5; 25°C

pKd: 6.00
Substance: tandem UBA domains of USP13 (USP13-UBA12, residues 652-776) (from UniProt Q92995 652-776) (domain or fragment)

— article PMC3247260
